Consider five substances from article PMC10410607.

Assay [1] has as its target histidine-tagged human C5a (human) (UniProt P01031). As to the kind of experiment: SPR; Biacore X100; His-C5a captured on a Ni-activated NTA chip at 25 RU; S512A-ScpA or S512A-79ΔPro flowed at 5.625-90 nM, 30 uL/min, association 180 s, dissociation 200 s; 10 mM HEPES-KOH pH 7.5, 150 mM NaCl, 0.005% Tween 20, 50 uM EDTA; global fit, Langmuir model; triplicates. In general terms: SPR reads the build-up and loss of mass on a sensor chip optically.

Assay [2] shares this target. As to the kind of experiment: SPR; Biacore X100; His-C5a captured on a Ni-activated NTA chip at 25 RU; S512A-ScpA or S512A-79ΔPro flowed at 5.625-90 nM, 30 uL/min, association 180 s, dissociation 200 s; 10 mM HEPES-KOH pH 7.5, 150 mM NaCl, 0.005% Tween 20, 50 uM EDTA; global fit with a Langmuir model; triplicates.

Broadly, the Kd is the constant that tells how readily two partners part at equilibrium. A high value points to lower affinity. “S512A-79ΔPro (active site mutated, propeptide truncated ScpA, amino acids 79-1032) (from UniProt P15926 79-1032) (enzyme)”: in assay [1], the Kd came to 25 nM. Same read-out and setting: under “S512A-ScpA (active site mutated Streptococcus pyogenes C5a peptidase, amino acids 32-1032) (from UniProt P15926 32-1032) (enzyme)” stands 35 nM. In general, koff refers to the rate constant with which the complex falls apart. What is called kon is a measure of how fast the partners come together. The low end stands for slow association, the high end for fast association. On to “S512A-ScpA, active site mutated Streptococcus pyogenes C5a peptidase (amino acids 32-1032) (from UniProt P15926 32-1032) (enzyme)”, for which, in assay [2], the koff amounted to 0.00638 s⁻¹ and the kon was found to be 182000 M⁻¹ s⁻¹. In assay [2], “S512A-ScpA, active site mutated Streptococcus pyogenes C5a peptidase (amino acids 32-1032) (from UniProt P15926 32-1032)” came in with a dissociation constant (Kd) of 25 nM. On to “S512A-79ΔPro, active site mutated propeptide-truncated ScpA (amino acids 79-1032) (from UniProt P15926 79-1032) (enzyme)”, for which, in assay [2], the Kd was found to be 35 nM, the koff is 0.00467 s⁻¹ and the kon amounted to 187000 M⁻¹ s⁻¹.
